In publication PMC9428257 (2022):

Legend:
Assay in all cases: FACS
[1] = biological target: yeast-displayed mutant sBCMA V2 (V3 without N53D) (human, UniProt Q02223 1-54, S16G | H19Y | T36A)
Clone V5 = biological target: Clone V5
Clone V8 = biological target: Clone V8

Kd [1]: 18 pM
Kd (Clone V5): 7 pM
Kd (Clone V8): 54 pM
B1: human APRIL (a proliferation-inducing ligand) (ligand)
chain: AVLTQKQKKQHSVLHLVPINATSKDDSDVTEVMWQPALRRGRGLQAQGYGVRIQDAGVYLLYSQVLFQDVTFTMGQVVSREGQGRQETLFRCIRSMPSHPDRAYNSCYSAGVFHLHQGDILSVIIPRARAKLNLSPHGTFLGFVKL
